# No end group written: not given here.
# T1: IL-15Rα on CTLL-2 cells (murine (CTLL-2 murine cell line), UniProt Q60819 33-263)
# T1 sequence (looked up): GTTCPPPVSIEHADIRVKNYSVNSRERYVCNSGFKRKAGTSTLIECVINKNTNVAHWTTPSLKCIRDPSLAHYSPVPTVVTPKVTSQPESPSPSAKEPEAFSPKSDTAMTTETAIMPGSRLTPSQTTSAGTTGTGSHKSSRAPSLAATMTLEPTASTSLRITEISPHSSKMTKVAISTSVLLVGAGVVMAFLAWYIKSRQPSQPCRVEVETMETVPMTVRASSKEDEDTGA
# Columns and labels:
# [1] = molecular target: T1, IL-15Rα on CTLL-2 cells; assay: cell-based or functional assay
# [2] = molecular target: T1, IL-15Rα on CTLL-2 cells; assay: cell-based or functional assay; remark: listed apart in the source
Binder,"IC50 (µM), IL-15-induced (300 pg/mL) proliferation of the CTLL-2 cell line, MTT [1] [µM]","IC50 (µM), IL-15-induced proliferation of the CTLL-2 cell line, MTT; '0' stands for loss of the inhibitory effect [1] [µM]",also measured
KVTAMKSFLL-NH2,–,0,–
KVTAAKCFLL-NH2,130,–,–
KVAAMKCFLL-NH2,130,–,–
KVTAMKCFLL-NH2 [KVTAMKCFLL (IL-15 antagonistic peptide of patent application No. WO2006/029578)],130,–,–
KVTAMKAFLL-NH2 [Cys-Ala mutant (SEQ ID No. 5)],–,0,–
KATAMKCFLL-NH2,130,–,–
KVTAMKCFLA-NH2,260,–,–
KVTAMECFLL-NH2,–,0,–
KVTAMKCFAL-NH2,200,–,–
"KVTAMTCFLL-NH2 (also: homodimer, two monomers linked through the free Cys) [peptide dimer of SEQ ID No. 12 linked through the free Cys]",–,–,"fold inhibitory activity against the original peptide, CTLL-2 proliferation assay [2]: 15 fold; inhibitory concentration 50 (IC50), IL-15-dependent proliferation [2]: 8 µM"

# Further lines, with some results ahead:
"IC50 (µM), IL-15-induced (300 pg/mL) proliferation of the CTLL-2 cell line, MTT [1] [µM]","IC50 (µM), IL-15-induced proliferation of the CTLL-2 cell line, MTT; '0' stands for loss of the inhibitory effect [1] [µM]",Binder,also measured
57.7,–,KVTAMTCYLL-NH2,–
24.6,–,"KVTAMTCFLL-NH2 [peptide SEQ ID No. 12 (Lys-Thr mutant, monomer)]","fold inhibitory activity against the original peptide, CTLL-2 proliferation assay [2]: 5 fold"
–,0,KVTAMKCALL-NH2 [mutant Phe-Ala (SEQ ID No. 4)],–

# — patent US20110251140A1 (CENTRO DE INGENIERIA GENETICA Y BIOTECNOLOGIA, published 2011)
